Laboratory results published in PMC10614612, “Identification of a carbonic anhydrase–Rubisco complex within the alpha-carboxysome” (Proceedings of the National Academy of Sciences of the …, 2023).
Positions count from the first letter of the chain named. Names and notes keep the numbering of the source.

T1: NTD_(1-53)-sfGFP P22A (H. neapolitanus, UniProt O85042 1-53, P22A)
T1 construct: first 53 residues of CsoSCA, H. neapolitanus, with P22A; source: E. coli, purified (His-tag purification); not shown: sfGFP, C-terminal, kept; His tag, C-terminal, kept
T1 sequence (looked up): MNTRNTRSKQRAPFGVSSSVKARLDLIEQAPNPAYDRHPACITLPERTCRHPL

T2: NTD_(1-53)-sfGFP R23A (H. neapolitanus, UniProt O85042 1-53, R23A)
T2 construct: first 53 residues of CsoSCA, H. neapolitanus, with R23A; source: E. coli, purified (His-tag purification); not shown: sfGFP, C-terminal, kept; His tag, C-terminal, kept
T2 sequence (looked up): T1 sequence (looked up) with A22P, R23A

T3: CbbS, Rubisco small subunit (as in Rubisco-strep) (H. neapolitanus, UniProt P45686 1-110)
T3 construct: Rubisco small subunit CbbS, H. neapolitanus; residues M4-N110 modelled; Subunit of m2, written on its own for the contacts in the cryo-EM structure; source: E. coli, coexpressed with GroEL/ES, purified as Rubisco-strep
T3 sequence: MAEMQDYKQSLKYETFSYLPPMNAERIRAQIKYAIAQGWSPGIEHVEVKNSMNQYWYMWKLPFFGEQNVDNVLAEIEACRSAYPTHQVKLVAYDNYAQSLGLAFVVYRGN

B1: NTD1-53-sfGFP-His, first 53 residues of CsoSCA fused to superfolder GFP (domain or fragment, H. neapolitanus, UniProt O85042 1-53, looked up)
chain: T1 sequence (looked up) with A22P
notes: first 53 residues of CsoSCA, Halothiobacillus neapolitanus; source: E. coli (see Dataset S4), purified (His-tag purification)
B2: Rubisco-strep (H. neapolitanus CbbL8S8) (complex)
chain 1: MAVKKYSAGVKEYRQTYWMPEYTPLDSDILACFKITPQPGVDREEAAAAVAAESSTGTWTTVWTDLLTDMDYYKGRAYRIEDVPGDDAAFYAFIAYPIDLFEEGSVVNVFTSLVGNVFGFKAVRGLRLEDVRFPLAYVKTCGGPPHGIQVERDKMNKYGRPLLGCTIKPKLGLSAKNYGRAVYECLRGGLDFTKDDENINSQPFMRWRDRFLFVQDATETAEAQTGERKGHYLNVTAPTPEEMYKRAEFAKEIGAPIIMHDYITGGFTANTGLAKWCQDNGVLLHIHRAMHAVIDRNPNHGIHFRVLTKILRLSGGDHLHTGTVVGKLEGDRASTLGWIDLLRESFIPEDRSRGIFFDQDWGSMPGVFAVASGGIHVWHMPALVNIFGDDSVLQFGGGTLGHPWGNAAGAAANRVALEACVEARNQGRDIEKEGKEILTAAAQHSPELKIAMETWKEIKFEFDTVDKLDTQNR
chain 2: T3 sequence
notes: Rubisco large subunit CbbL, H. neapolitanus, alpha-carboxysomal Form IA; residues V3-E457 modelled in the cryo-EM maps; Rubisco small subunit CbbS, H. neapolitanus; residues M4-N110 modelled in the cryo-EM maps; Printed both as 'strep-Rubisco' and 'Rubisco-strep'; plasmid in Dataset S4; also called strep-Rubisco; WT; source: E. coli, coexpressed with GroEL/ES, purified (Strep-tag purification); …
B3: NTD_(1-53)-sfGFP (domain or fragment, H. neapolitanus, UniProt O85042 1-53, looked up)
chain: T1 sequence (looked up) with A22P
notes: first 53 residues of CsoSCA (unstructured N-terminal peptide), H. neapolitanus; Fused to monomeric superfolder GFP; Linker, if any, is in Dataset S4; also called NTD_(1-53)-sfGFP-His; source: E. coli, purified (His-tag purification); not shown: sfGFP, C-terminal, kept; His tag, C-terminal, kept
B4: Rubisco D99A (complex, H. neapolitanus)
chain 1: B2 chain 1 with D99A
chain 2: T3 sequence
notes: Rubisco large subunit CbbL, H. neapolitanus, with D99A (the text places D99 on CbbL); Rubisco small subunit CbbS, H. neapolitanus; Plasmid in Dataset S4; source: E. coli, coexpressed with GroEL/ES, purified (Strep-tag purification); copies: 8 + 8
B5: Rubisco Y72A (complex, H. neapolitanus)
chain 1: B2 chain 1 with Y72A
chain 2: T3 sequence
notes: Rubisco large subunit CbbL, H. neapolitanus, with Y72A (the text places Y72 on CbbL); Rubisco small subunit CbbS, H. neapolitanus; Plasmid in Dataset S4; source: E. coli, coexpressed with GroEL/ES, purified (Strep-tag purification); copies: 8 + 8
B6: NTD_(1-50) peptide (CsoSCA residue 1-50) (peptide, UniProt O85042 1-50, looked up)
peptide: MNTRNTRSKQRAPFGVSSSVKPRLDLIEQAPNPAYDRHPACITLPERTCR
notes: first 50 residues of CsoSCA, H. neapolitanus; also called NTD peptide; N50 peptide
B7: CbbL, Rubisco large subunit (as in Rubisco-strep) (natural protein, H. neapolitanus)
chain: B2 chain 1
notes: Rubisco large subunit CbbL, H. neapolitanus; residues V3-E457 modelled; Subunit of m2, written on its own for the contacts in the cryo-EM structure; also called CbbLA; CbbLB; source: E. coli, coexpressed with GroEL/ES, purified as Rubisco-strep
B8: CsoSCA-MBP (enzyme, H. neapolitanus, UniProt O85042 1-514, looked up)
chain: MNTRNTRSKQRAPFGVSSSVKPRLDLIEQAPNPAYDRHPACITLPERTCRHPLTDLEANEQLGRCEDSVKNRFDRVIPFLQVVAGIPLGLDYVTRVQELAQSSLGHTLPEELLKDNWISGHNLKGIFGYATAKALTAATEQFSRKIMSEKDDSASAIGFFLDCGFHAVDISPCADGRLKGLLPYILRLPLTAFTYRKAYAGSMFDIEDDLAQWEKNELRRYREGVPNTADQPTRYLKIAVYHFSTSDPTHSGCAAHGSNDRAALEAALTQLMKFREAVENAHCCGASIDILLIGVDTDTDAIRVHIPDSKGFLNPYRYVDNTVTYAQTLHLAPDEARVIIHEAILNANRSDGWAKGNGVASEGMRRFIGQLLINNLSQIDYVVNRHGGRYPPNDIGHAERYISVGDGFDEVQIRNLAYYAHLDTVEENAIDVDVGIKIFTKLNLSRGLPIPIAIHYRYDPNVPGSRERTVVKARRIYNAIKERFSSLDEQNLLQFRLSVQAQDIGSPIEEVASA
notes: CsoSCA, beta-carbonic anhydrase of the alpha-carboxysome, H. neapolitanus; also called CsoSCA-MBP-his; C-terminal MBP tagged CsoSCA; source: E. coli, purified (His-tag purification, size exclusion chromatography); not shown: MBP, C-terminal, kept

Legend:
[1] = biological target: T4, Rubisco-strep (CbbL8S8) from Halothiobacillus neapolitanus (H. neapolitanus, UniProt O85040 1-473; P45686 1-110); assay: SEC; Superose 6 Increase 3.2/300, 20 mM Tris pH 7.5, 150 mM NaCl, 4 °C; NTD1-53-sfGFP:CbbL8S8 mixed 32:1; A280 and A485 monitored; conditions: both partners purified
T4 construct: Rubisco large subunit CbbL, Halothiobacillus neapolitanus; Rubisco small subunit CbbS, Halothiobacillus neapolitanus; also called strep-Rubisco; source: E. coli (BL21-A1 or BW25113, see Dataset S4), co-expressed with GroEL/ES, purified (StrepTrap); copies: 8 + 8

[2] = biological target: B3; assay: BLI; 5 μg/mL NTD_(1-53)-sfGFP-His (or point mutant) immobilised on Ni-NTA biosensors; strep-Rubisco (WT 250–3.9 nM, or mutant) as prey; 25 mM Tris pH 7.5, 70 mM NaCl, 0.01% Triton X100; 1:2 (Bivalent Analyte) binding model; conditions: both partners purified
[3] = biological target: T1, NTD_(1-53)-sfGFP P22A; assay: as above; conditions: both partners purified
[4] = biological target: T2, NTD_(1-53)-sfGFP R23A; assay: as above; conditions: both partners purified
[5] = biological target: B2; assay: SEC; NTD_(1-53)-sfGFP and Rubisco-strep mixed 32:1 (NTD_(1-53)-sfGFP:CbbL8S8); Superose 6 Increase 3.2/300; 20 mM Tris pH 7.5, 150 mM NaCl, 4 °C; A280 and A485; conditions: both partners purified
[6] = biological target: T3, CbbS, Rubisco small subunit (as in …); assay: cryo-EM structure; 0.5 μM Rubisco-strep with 0.5 mM NTD_(1-50) peptide; 25 mM Tris pH 7.5, 80 mM NaCl, 2% glycerol; two reconstructions (State-1, State-2), D4 symmetry; conditions: both partners purified
[7] = biological target: B2; assay: as above; conditions: both partners purified
[8] = biological target: the molecule itself; assay: as above
[9] = biological target: T5, biotinylated Rubisco (H. neapolitanus CbbL8S8) (H. neapolitanus, UniProt O85040 1-473; P45686 1-110, biotin (sites and subunit not stated)); assay: BLI; biotinylated Rubisco immobilised on streptavidin biosensors; 62.5–2.0 nM CsoSCA-MBP as prey; 25 mM Tris pH 7.5, 125 mM NaCl, 0.01% Triton X100; 1:1 binding model; triplicate; conditions: both partners purified
T5 construct: Rubisco large subunit CbbL, H. neapolitanus, alpha-carboxysomal Form IA; Rubisco small subunit CbbS, H. neapolitanus; Held on streptavidin sensors; how it was biotinylated is in the SI Appendix methods; source: E. coli, coexpressed with GroEL/ES, purified (Strep-tag purification), biotinylated; copies: 8 + 8

Binder | KD2 (second set of the 1:2 fit) [2] | KD (first set of the 1:2 fit) [2] | koff2 (second set of the 1:2 fit) [2] | koff (first set of the 1:2 fit) [2] | kon2 (second set of the 1:2 fit) [2] | kon (first set of the 1:2 fit) [2] | other results
B1 | – | – | – | – | – | – | binding result [1]: binds
B2 | 80 ± 1 nM | 33 ± 0.4 nM | 0.11 s⁻¹ | 0.0069 s⁻¹ | 1.4e+06 M⁻¹ s⁻¹ | 210000 M⁻¹ s⁻¹ | KD2 (second set of the 1:2 fit) [3]: 6.5 ± 0.4 µM; KD (first set of the 1:2 fit) [3]: 18000 nM; koff2 (second set of the 1:2 fit) [3]: 0.44 s⁻¹; koff (first set of the 1:2 fit) [3]: 0.044 s⁻¹; kon2 (second set of the 1:2 fit) [3]: 68000 M⁻¹ s⁻¹; kon (first set of the 1:2 fit) [3]: 2400 M⁻¹ s⁻¹; KD2 (second set of the 1:2 fit) [4]: 130 ± 2 nM; KD (first set of the 1:2 fit) [4]: 17 ± 0.2 nM; koff2 (second set of the 1:2 fit) [4]: 0.061 s⁻¹; koff (first set of the 1:2 fit) [4]: 0.0033 s⁻¹; kon2 (second set of the 1:2 fit) [4]: 460000 M⁻¹ s⁻¹; kon (first set of the 1:2 fit) [4]: 190000 M⁻¹ s⁻¹
B3 | – | – | – | – | – | – | binding result [5]: binds
B4 | 1100 ± 14 nM | 400 ± 10 nM | 0.15 s⁻¹ | 0.0059 s⁻¹ | 130000 M⁻¹ s⁻¹ | 15000 M⁻¹ s⁻¹ | –
B5 | 820 ± 11 nM | 320 ± 6 nM | 0.15 s⁻¹ | 0.0089 s⁻¹ | 180000 M⁻¹ s⁻¹ | 28000 M⁻¹ s⁻¹ | –
B6 | – | – | – | – | – | – | binding result [6]: binds; stoichiometry N [7]: 8
B7 | – | – | – | – | – | – | binding result [8]: binds
B8 | – | – | – | – | – | – | Kd [9]: 1.2 ± 0.1 nM
